The values below come from patent publication US20250382379A1 (VISTERRA, published 2025).

Substitutions are numbered along the chain they refer to.

Test [1] concerns the target T1, human CD138 derived peptide 6A (membrane proximal region), biotinylated (human, biotinylated (site not stated)).
T1 construct: also called Pep6a
T1 peptide: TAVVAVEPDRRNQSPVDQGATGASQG
In words: antigen capture ELISA, antibody coated, biotinylated peptide titrated from 50 nM. Here is the method:
(§1) 1 or select human CD138 derived peptides (Table 3) was evaluated by antigen capture ELISA. […] The immobilized monoclonal antibodies were tested for binding to biotinylated recombinant CD138 extracellular domain or peptides 2A, peptide 6A in 5-fold serial antigen dilutions starting at starting at a 50 nM concentration. HRP-conjugated Anti-biotin secondary antibody (1:10000 dilution) was used for detection.

In test [2] the target is T2, human CD138 derived peptide 2A (integrin binding domain), biotinylated (human, biotinylated (site not stated)).
T2 construct: also called Pep2a
T2 peptide: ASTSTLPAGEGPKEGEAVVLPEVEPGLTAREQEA
The description is as above. How it is done: as §1

Test [3] addresses T3, human CD138 (syndecan-1), membrane-bound on CD138+ multiple myeloma cell lines (human, UniProt P18827 23-310).
T3 construct: whole, on cells; also called membrane CD138; cell surface CD138
T3 sequence (looked up): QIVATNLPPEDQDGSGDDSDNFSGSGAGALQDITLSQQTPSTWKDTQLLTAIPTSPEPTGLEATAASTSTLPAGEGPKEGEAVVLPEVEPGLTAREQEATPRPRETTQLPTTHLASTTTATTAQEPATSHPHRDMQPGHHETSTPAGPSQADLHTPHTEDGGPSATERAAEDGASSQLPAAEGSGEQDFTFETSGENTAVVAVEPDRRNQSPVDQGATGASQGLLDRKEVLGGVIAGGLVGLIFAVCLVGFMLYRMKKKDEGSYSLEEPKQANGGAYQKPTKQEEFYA
Description: flow cytometry on U266 cells, maximal MFI, reference BB4. How it is done: The antibodies were then serially diluted three-fold. Antibody binding to membrane CD138 was evaluated using the CD138+ human lymphoblastic myeloma cell line U266 and quantified by flow cytometry. Antibody cell binding was reported as geometric mean fluorescence intensity (MFI). Binding data were plotted using nonlinear regression analysis and a 4-parameter curve fit.
Antibody cell binding was reported as geometric mean fluorescence intensity (MFI). Binding data were plotted using nonlinear regression analysis and a 4-parameter curve fit.

The target of test [4] is T4, extracellular domain of soluble human CD138 (amino acids 18-251 of SEQ ID NO 1), biotinylated recombinant (human, UniProt P18827 18-251, biotinylated (site not stated)).
T4 construct: also called CD138 extracellular domain; soluble extracellular domain of human CD138
T4 sequence: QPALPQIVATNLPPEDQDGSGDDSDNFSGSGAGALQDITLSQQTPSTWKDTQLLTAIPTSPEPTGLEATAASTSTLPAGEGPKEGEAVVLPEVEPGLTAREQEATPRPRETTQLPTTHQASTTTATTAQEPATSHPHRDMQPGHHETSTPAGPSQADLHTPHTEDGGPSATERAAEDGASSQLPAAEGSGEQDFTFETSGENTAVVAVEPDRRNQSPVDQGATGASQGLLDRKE
Description: antigen capture ELISA, antibody coated, biotinylated CD138 extracellular domain, reference BB4. How it is done: as §1

Test [5] addresses T3, human CD138 (syndecan-1), …. In words: flow cytometry on MM1.S, LP-1 and RPMI 8226 cells.
For test [6] the target is unchanged. In words: flow cytometry on U266 cells, geometric MFI.

B1: humanized anti-CD138 antibody mAb 4320 (antibody, human IgG1, kappa, V domains shown)
VH: QVQLVQSGAEVKKPGASVKVSCKASGYSFSSYYMHWVRQAPGQGLEWMGTIHPSDSTTNYNQKFQGRVTMTVDTSTRTAYMELSSLRSEDTAVYYCANFVYWGQGTTVTVSS
VL: DIVMTQTPLSLSVTPGQPASISCKSSKSLLYKDGKTYLNWFLQKPGQSPQLLIYVVSTRASGVPDRFSGSGSGTDFTLKISRVEAEDVGVYYCQQLVEYPYTFGQGTKLEIKR
notes: Produced with 2FF in the medium to reduce core fucose of the N297 glycan
In the case of B1, the binding result in test [1] and in test [2] was “binds” throughout. Also, the “total cell surface binding (maximal MFI) relative to antibody BB4” value in test [3] was around 25 % greater than BB4. Further, the “fold higher binding affinity in comparison to BB4” value in test [4] is around 6 fold.

B2: humanized anti-CD138 antibody variant 4326 (antibody, human IgG1, V domains shown)
VH: B1 VH
VL: DIVMTQSPDSLAVSLGERATINCKSSQSLLYKDGKTYLNWFQQKPGQPPKLLIYVVSTRASGVPDRFSGSGSGTDFTLTISSLQAEDVAVYYCQQLVEYPYTFGQGTKLEIK
notes: also called mAb 4326
B2: the binding result in test [5] is given as “binds”.

B3: humanized anti-CD138 antibody variant 3821 (antibody, human IgG1, V domains shown)
VH: B1 VH with A16S, T58A, Q65K, M70I, T74K, R77S
VL: DIVMTQTPLSLSVTPGQPASISCKSSKSLLYKDGKTYLNWFLQKPGQSPQLLIYVVSTRASGVPDRFSGSGSGTDFTLKISRVEAEDVGVYYCQQLVQYPYTFGQGTKLEIK
notes: also called mAb 3821
As to B3, the binding result in test [5] was “binds”.

B4: humanized anti-CD138 antibody variant 4321 (antibody, human IgG1, V domains shown)
VH: B1 VH
VL: B3 VL
notes: also called mAb 4321
As to B4, the binding result in test [5] was “binds”.

B5: humanized anti-CD138 antibody variant 4521 (antibody, human IgG1, V domains shown)
VH: B1 VH with S28N, S30A, Q65K, R77S
VL: B3 VL
notes: also called mAb 4521
In the case of B5, the binding result in test [5] is “binds”.

B6: humanized anti-CD138 antibody variant 3820 (antibody, human IgG1, V domains shown)
VH: B1 VH with A16S, T58A, Q65K, M70I, T74K, R77S
VL: B3 VL with Q98E
notes: also called mAb 3820
For B6, the binding result in test [5] was “binds”.

B7: mouse chimeric anti-CD138 antibody 2810 (antibody, V domains shown)
VH: QVQLHQPGTSLVKPGASVKLSCKASGYSFSSYYMHWVKQRPGQGLEWIGTIHPSDSTTNYNQKFKGKATLTVDKSSRTAYMQLNSLTFEDSAVYYCANFVYWGQGTSVTVSS
VL: DIVITQDELSNPVTSGDSVSISCRSSKSLLYKDGKTYLNWFLQRPGQSPQLLIYVVSTRASGVSDRFSGSGSGTDFTLEISRVKAEDVGVYYCQQLVEYPYTFGGGTKLEIK
notes: Described as a mouse-human chimeric antibody; also called mAb2810
For the molecule B7, the binding result in test [6] is reported as “binds”.
